Reference: patent publication US20120308566A1

What was measured:
chimera L = assay: Bio-Plex titration on His-captured chimera; bold cell = binding criterion not met
[1] = biological target: Human IL-17RA full-length expressed on the surface of cells (human) (UniProt Q96F46); assay: cell-based or functional assay

Binder	EC50 as fitted, in a bold cell (binding criterion not met) (chimera L)	% inhibition of IL-6 production, IL-17A/HFF bioassay, supernatant 19 (incl. AMH23), 1:4 dilution [1]	% inhibition of IL-6 production, IL-17A/HFF bioassay, supernatant 19 (incl. AMH23), 1:32 [1]	% inhibition of IL-6 production, repeat IL-17A/HFF bioassay, supernatant 19 (incl. AMH23), 1:4 [1]	% inhibition of IL-6 production, repeat IL-17A/HFF bioassay, supernatant 19 (incl. AMH23), 1:32 [1]	% inhibition of IL-6 production, repeat IL-17A/HFF bioassay, supernatant 19 (incl. AMH23), 1:128 [1]	% inhibition of IL-6 production, repeat IL-17A/HFF bioassay, supernatant 19 (incl. AMH23), 1:512 [1]
AMH26/AML26 (antibody, IgG2, V domains shown) VH: QVQLVESGGGLVKPGGSLRLSCAASGFTFSDYYMSWIRQAPGKGLEWVSYISSSGSTIYYADSVKGRFTISRDNAKNSLYLQMNSLRAEDTAVYYCARDRTYYFGSGSYEGMDVWGQGTTVTVSS VL: EILMTQSPATLSVSPGERATLSCRASQSVYSNLAWYQQKPGQAPRLLISGASTRATGIPARFSGSGSGTEFTLTISSLQSEDFAVYYCQQYYNWPWTFGQGTKVEIK	6 pM	–	–	–	–	–	–
AMH23/AML23 (antibody, part only; not given: light variable domain, version unclear, V domains shown, part only) VH: QVQLQESGPGLVKPSETLSLTCTVSGGSISSYYWSWIRQPAGKRLEWIGRIYPSGRTNYNPSLKSRVTMSVDTSKNQFSLKLSSVTAADTAVYYCAREAYELQLGLYYYYGMDVWGQGTPVTVSS	–	79%	72%	86%	76%	67%	50%
